Laboratory results as given in patent US20120070432A1, “TREATMENT OF PANCREATIC CANCER USING A DR5 AGONIST IN COMBINATION WITH GEMCITABINE” (AMGEN INC., priority 2009, published 2012).

What was measured:
[1] = test system: patients with advanced solid tumors; settings: cited from earlier work
[2] = test system: patients with previously untreated metastatic pancreatic cancer; assay: Multi-center phase I trial of AMG 655 + gemcitabine; assay type: in vivo
From the text: Example 2 describes the treatment of patients with metastatic pancreatic cancer with AMG 655 in combination with gemcitabine.
Conatumumab (AMG 655) is an investigational, fully human agonist monoclonal antibody (IgG1) that binds human death receptor 5 (DR5), activates caspases, and induces apoptosis in sensitive tumor cells. In a multi-center phase I trial to evaluate AMG 655 +gemcitabine in metastatic pancreatic patients. The primary endpoint was dose-limiting toxicity (DLT). Secondary endpoints included toxicity, pharmacokinetics, antibody formation, objective response rate, progression-free survival (PFS), 6-month and overall survival.
Eligible patients had previously untreated metastatic pancreatic cancer and ECOG PS (Eastern Cooperative Oncology Group Performance Status) 0 or 1. Patients were enrolled into sequential cohorts and received AMG 655 3 or 10 mg/kg IV days (D) 1 and 15 and gemcitabine 1000 mg/m^2IV D 1, 8, and 15 every 28 D. CT scans were obtained Q2 cycles.

[3] = test system: pancreatic cancer patients; settings: gemcitabine alone, Moore et al.; cited from earlier work
[4] = dose cohorts 0.3, 1 and 3 mg/kg
[5] = of 13 patients with tumor-response data

For “AMG 655: fully human monoclonal agonist antibody (IgG1) that binds human death receptor 5 (DR5); CAS Registry Number 896731-82-1”, the DLTs ([1]; 0.3, 1, 3, 10 or 20 mg/kg IV Q2W, 16 patients) is listed as “No DLTs”, the “AMG 655-related serious AEs” value ([1]; 0.3-20 mg/kg IV Q2W, 16 patients) is listed as “No” and the MTD ([1]; 0.3-20 mg/kg IV Q2W) is listed as “not reached”. For the same compound, the “reduction in tumor volume by RECIST” value ([1]; NSCLC patient with partial response) was 46%, the “time on study of partial responder” value ([1]; NSCLC patient, remains on study) was > 48 weeks and the partial response ([1]; NSCLC, tumor-response data for 13 patients) was 1 patient. The “grade 3 or higher AMG 655-related AEs” value ([1]; both in the same patient, 0.3-mg/kg cohort) was “Fatigue and elevated serum lipase”, the “reduction in maximum standardized uptake value (SUVmax)” value ([1]; colorectal cancer patient with stable disease, metabolic partial response (FDG-PET)) was 34% and the half-life [1, 4] was ~240 h. The “kinetics (dose linearity)” value [1, 4] was “dose-linear kinetics”, the “anti-AMG 655 antibodies” value ([1]; monotherapy) was “No anti-AMG 655 antibodies were detected” and the progressive disease [1, 5] was 8 patients. For the same compound, the stable disease [1, 5] was 4 patients, the “patients reporting AMG 655-related AEs” value ([1]; of 16 patients) was “Nine” and the “treatment-related AE: fatigue” value ([1]; of 16 patients) was 3 patients. For the same compound, the “treatment-related AE: hypomagnesaemia” value ([1]; of 16 patients) was 3 patients, the “treatment-related AE: pyrexia” value ([1]; of 16 patients) was 4 patients and the tolerability ([1]; up to 20 mg/kg Q2W) was “well tolerated”. For the same compound, the “anti-AMG 655 antibodies” value ([2]; in combination with gemcitabine) was “No anti-AMG 655 antibodies were detected” and the “effect of AMG 655 on pharmacokinetic (PK) of gemcitabine” value ([2]; preliminary data) was “no effect”.

In the case of `Nc1ccn([C@@H]2O[C@H](CO)[C@@H](O)C2(F)F)c(=O)n1` [gemcitabine], the “median overall survival (50% survival)” value [3] is given as “approximately 6 months” and the “survival at 1 year” value [3] is given as 17%.
